The values that follow come from publication PMC12369479, “A monomer–dimer switch modulates the activity of plant adenosine kinase” (Journal of Experimental Botany, 2025).

Assay [1] deals with Arabidopsis thaliana adenosine kinase 2 (6×His-AtADK2) (Arabidopsis thaliana) (UniProt Q9LZG0). Nature of the assay: dynamic light scattering; AtADK2 at higher concentrations (5 mg/ml) (preliminary results).
Assay [2] shares this target. Nature of the assay: SEC; gel permeation chromatography of 6×His-AtADK2 at 1.2 mg/ml (preliminary results, Supplementary Fig. S10). On the technique in general: SEC sorts molecules by how far they enter the pores of the column.
Assay [3] concerns the target Zea mays adenosine kinase 3 (ZmADK3) (Zea mays). Nature of the assay: SEC; gel permeation chromatography of maize ADKs at higher concentrations (30 mg/ml), Supplementary Fig. S1.
For assay [4], the target named is Zea mays adenosine kinase 2 (ZmADK2) (Zea mays). Described as above.
Assay [5] addresses Zea mays adenosine kinase 1 (ZmADK1) (Zea mays). The description is as above.
Assay [6] deals with Physcomitrella patens adenosine kinase 2 (PpADK2) (Physcomitrella patens). Nature of the assay: SEC; gel permeation chromatography of moss ADKs on Superdex 200 10/30 HR, 20 mM Tris-HCl pH 7.5, 100 mM NaCl; dimers from 0.01 mg/ml (0.25 µM), mainly dimeric above 0.3 mg/ml (7.7 µM); monomer to dimer.
Assay [7] shares this target.
Assay [8] has as its target Physcomitrella patens adenosine kinase 1 (PpADK1) (Physcomitrella patens) (UniProt O49923). Nature of the assay: SEC; gel permeation chromatography of moss ADKs on Superdex 200 10/30 HR, 20 mM Tris-HCl pH 7.5, 100 mM NaCl; dimers from 0.01 mg/ml (0.25 µM), mainly dimeric above 0.3 mg/ml (7.7 µM); monomer to dimer.
The target is the same in assay [9]. Nature of the assay: dynamic light scattering; hydrodynamic diameter, 20 mM Tris-HCl pH 7.5, 1 mM MgCl2, apoform or with 2 mM ATP, 22 °C.
Assay [10] shares this target. Nature of the assay: SAXS; small-angle X-ray scattering, 50 mM Tris-HCl pH 7.5, three concentrations up to 5 mg/ml; Guinier analysis and Bayesian molecular weight estimate.
For assay [11] the target is unchanged.
The target is the same in assay [12]. Nature of the assay: AUC; sedimentation velocity of PpADK1 at a higher concentration (>0.3 mg/ml), 20 mM Tris-HCl pH 7.5, 150 mM NaCl, 10 mM MgCl2, 10 µM DTT, 1% glycerol, 25 °C, c(s) analysis; monomer to dimer.

Take “Arabidopsis thaliana adenosine kinase 2 (6×His-AtADK2) (from UniProt Q9LZG0 1-345) (enzyme)”: the stoichiometry N in [1] and in assay [2] was 2 throughout.

“Zea mays adenosine kinase 3 (ZmADK3) (enzyme)”: in [3], the stoichiometry N was found to be 2.

“Zea mays adenosine kinase 2 (ZmADK2) (enzyme)” yielded a stoichiometry N in assay [4] of 2.

“Zea mays adenosine kinase 1 (ZmADK1) (enzyme)” returned a stoichiometry N in assay [5] of 2.

“Physcomitrella patens adenosine kinase 2 (PpADK2) (enzyme)” yielded a stoichiometry N in assay [6] of 2. The substance also registered a specific activity with 100 µM Ado (coupled reaction with PK and LDH, 30 °C) (nmol s^–1 mg^–1) in assay [7] of 4.7.

Regarding “Physcomitrella patens adenosine kinase 1 (PpADK1) (from UniProt O49923 1-343) (enzyme)”, the stoichiometry N in assay [8], in [9], in assay [10] and in assay [12] was 2 each time. For the same substance, the specific activity with 100 µM Ado (coupled reaction with PK and LDH, 30 °C) (nmol s^–1 mg^–1) in [11] was 5.09.

As a reminder, the stoichiometry N is a count of units in the complex or per binding partner.
